This assay deals with Cynomolgus monkey Ang2 C-terminal domain (Lys274-Phe495) (cynomolgus monkey). The assay can be described thus: ForteBio BLI, antibody on AHQ sensor, 100 nM antigen, 1:1 model.
Sequence of Cynomolgus monkey Ang2 C-terminal domain (Lys274-Phe495) (cynomolgus monkey) (chain, as listed by the source, form in doubt): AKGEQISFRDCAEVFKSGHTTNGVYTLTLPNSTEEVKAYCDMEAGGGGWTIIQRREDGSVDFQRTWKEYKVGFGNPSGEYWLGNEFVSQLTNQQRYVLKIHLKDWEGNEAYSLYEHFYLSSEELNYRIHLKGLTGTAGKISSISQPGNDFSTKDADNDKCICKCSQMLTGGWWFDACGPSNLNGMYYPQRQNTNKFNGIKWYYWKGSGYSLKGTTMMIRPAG

B1: chimeric antibody 81H10 (antibody, human IgG1, kappa, V domains shown)
VH: EVKLEESGGGLVQPGGSMKLSCVASGFTFSNYWMNWVRQSPEKGLEWVAEIRLKSNNYATHYAESVKGRFTISRDVSKSSVYLQMNNLRTEDTGIYYCTDTAPFAYWGQGTLVTVSA
VL: DIVMTQSHKFMSTSVGDRVSITCKASQDVGTDVAWYQQKPGQSPKLLIYWASTRHTGVPDRFTGSGSGTDFTLTISNVQSEDLSDYFCQQYSSYPLTFGGGTKLEIKR
What is called Kd is the free concentration of one partner at which half of the binding sites on the other are occupied at equilibrium, for simple one-to-one binding. With B1, the Kd amounted to 44.3 nM.

B2: humanized antibody hz81H10.4 (antibody, human IgG1, kappa, V domains shown)
VH: EVQLVESGGGLVKPGGSLRLSCAASGFTFSNYWMNWVRQAPGKGLEWVAEIRLKSNNYATHYAESVKGRFTISRDVSKNTVYLQMNSLKTEDTAVYYCTDTAPFAYWGQGTLVTVSS
VL: DIQMTQSPSSLSASVGDRVTITCKASQDVGTDVAWYQQKPGKAPKLLIYWASTRHTGVPSRFSGSGSGTDFTLTISSLQPEDFATYYCQQYSSYPLTFGGGTKVEIKR
The molecule B2 showed a Kd of 88.3 nM.

The values above are taken from patent US20240239881A1.
